Assay results from the supplement of paper PMC9112550, “Optimization of the antimicrobial peptide Bac7 by deep mutational scanning” (BMC Biology, 2022).

tested on: Escherichia coli TOP10; assay: shrunken log2 fold change of peptide-encoding DNA abundance (4.5 h post-induction vs induction); higher = less antimicrobial activity (less host growth inhibition); conditions: time post-induction: 4.5 h; library: site-saturation at positions 5, 18, 19, 20
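Also: peptides expressed intracellularly from a pBAD plasmid library in pooled LB shake-flask culture, induced with 0.3% L-arabinose, DNA abundance read by NGS, three biological replicates, DESeq2 with apeglm shrinkage.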

Sequence | shrunken log2 fold change
RRIRHRPPRLPRPRPRPQLYPRP | -0.238
RRIRRRPPRLPRPRPRPMSAPRP | 0.128
RRIRGRPPRLPRPRPRPRYEPRP | 0.409
RRIRWRPPRLPRPRPRPPNMPRP | 0.0854
RRIRLRPPRLPRPRPRPNCTPRP | -0.24
RRIRERPPRLPRPRPRPGDCPRP | -0.0777
RRIRVRPPRLPRPRPRPPRKPRP | 0.482
RRIRKRPPRLPRPRPRPKGKPRP | 0.302
RRIRRRPPRLPRPRPRPPDTPRP | 0.436
RRIRHRPPRLPRPRPRPHRKPRP | -0.351
RRIRHRPPRLPRPRPRPDPCPRP | -0.186
RRIRCRPPRLPRPRPRPWWNPRP | -0.752
RRIRSRPPRLPRPRPRPESFPRP | -0.0898
RRIRVRPPRLPRPRPRPLEIPRP | -0.073
RRIRGRPPRLPRPRPRPRCWPRP | 1.19
RRIRGRPPRLPRPRPRPSEFPRP | 0.122
RRIRIRPPRLPRPRPRPQDDPRP | 0.0213
RRIRDRPPRLPRPRPRPCVSPRP | 0.0278
RRIRERPPRLPRPRPRPAHQPRP | -0.136
RRIRQRPPRLPRPRPRPLDWPRP | 0.099
RRIRSRPPRLPRPRPRPENGPRP | 0.0751
RRIRQRPPRLPRPRPRPNFLPRP | -0.492
RRIRHRPPRLPRPRPRPFYVPRP | 2.94
RRIRVRPPRLPRPRPRPCNWPRP | -0.327
RRIRERPPRLPRPRPRPPLHPRP | -0.0595

Sequence | shrunken log2 fold change
RRIRIRPPRLPRPRPRPHKIPRP | -0.462
RRIRKRPPRLPRPRPRPHYAPRP | -0.0144
RRIRWRPPRLPRPRPRPKKVPRP | 0.0465
RRIRGRPPRLPRPRPRPQFTPRP | 0.104
RRIRYRPPRLPRPRPRPGTWPRP | 0.585
RRIRQRPPRLPRPRPRPPETPRP | 0.00852
RRIRFRPPRLPRPRPRPIIEPRP | -0.747
RRIRRRPPRLPRPRPRPYGIPRP | -0.161
RRIRSRPPRLPRPRPRPQHVPRP | -0.17
RRIRVRPPRLPRPRPRPRTNPRP | -0.42
RRIRPRPPRLPRPRPRPIKPPRP | -0.0651
RRIRRRPPRLPRPRPRPKNGPRP | 0.259
RRIRHRPPRLPRPRPRPLPGPRP | 0.103
RRIRRRPPRLPRPRPRPGFVPRP | 0.423
RRIRWRPPRLPRPRPRPTQGPRP | 0.533
RRIRWRPPRLPRPRPRPCMIPRP | -0.471
RRIRERPPRLPRPRPRPNNFPRP | -0.0786
RRIRSRPPRLPRPRPRPWVKPRP | 0.194
RRIRHRPPRLPRPRPRPCALPRP | -0.339
RRIRNRPPRLPRPRPRPPRTPRP | 0.59
RRIRMRPPRLPRPRPRPNDTPRP | 0.11
RRIRKRPPRLPRPRPRPGYKPRP | 0.236
RRIRFRPPRLPRPRPRPGDKPRP | 0.215
RRIRSRPPRLPRPRPRPKGAPRP | 0.38
RRIRCRPPRLPRPRPRPKQKPRP | 0.0322

Sequence | shrunken log2 fold change
RRIRGRPPRLPRPRPRPIAHPRP | 0.334
RRIRRRPPRLPRPRPRPVVQPRP | 0.534
RRIRPRPPRLPRPRPRPNMAPRP | 0.478
RRIRARPPRLPRPRPRPEVTPRP | 1.28
RRIRVRPPRLPRPRPRPGYVPRP | -0.351
RRIRGRPPRLPRPRPRPCGTPRP | 1.44
RRIRTRPPRLPRPRPRPEAIPRP | -0.00172
RRIRQRPPRLPRPRPRPTAPPRP | 0.0785
RRIRKRPPRLPRPRPRPSCYPRP | -0.0656
RRIRTRPPRLPRPRPRPITEPRP | -0.183
RRIRLRPPRLPRPRPRPHFHPRP | -0.0565
RRIRERPPRLPRPRPRPLQFPRP | -0.468
RRIRNRPPRLPRPRPRPEDVPRP | -0.0153
RRIRLRPPRLPRPRPRPAVDPRP | 0.163
RRIRIRPPRLPRPRPRPWARPRP | 0.0419
RRIRWRPPRLPRPRPRPHWNPRP | -0.676
RRIRERPPRLPRPRPRPMKHPRP | -0.794
RRIRNRPPRLPRPRPRPWEVPRP | 0.00408
RRIRWRPPRLPRPRPRPFVVPRP | -0.242
RRIRWRPPRLPRPRPRPEEQPRP | 0.149
RRIRCRPPRLPRPRPRPFNYPRP | -0.836
RRIRVRPPRLPRPRPRPINNPRP | -0.684
RRIRARPPRLPRPRPRPRIPPRP | 0.0568
RRIRGRPPRLPRPRPRPDVIPRP | 0.68
RRIRHRPPRLPRPRPRPEYTPRP | -0.0512
